{"source": "paper PMC5887438", "about": "(Nucleic Acids Research, 2018)", "binders": {"B1": {"name": "C. crescentus GcrA-SID (residues 88-173) (domain or fragment, Caulobacter crescentus, UniProt A0A0H3C9J4 88-173, looked up)", "chain": "VPVAAAPAPLPAFRHEEPGSATVLTLGAHMCKWPIGDPSSEGFTFCGRRSSEGPYCVEHARVAYQPQQTKKKSGGAELARSLRRYI"}}, "target": "C. crescentus σ70 domain 2 (σ70_2, residues 128-487) (Caulobacter crescentus, UniProt P52324 127-486)", "sequence (P52324 127-486)": "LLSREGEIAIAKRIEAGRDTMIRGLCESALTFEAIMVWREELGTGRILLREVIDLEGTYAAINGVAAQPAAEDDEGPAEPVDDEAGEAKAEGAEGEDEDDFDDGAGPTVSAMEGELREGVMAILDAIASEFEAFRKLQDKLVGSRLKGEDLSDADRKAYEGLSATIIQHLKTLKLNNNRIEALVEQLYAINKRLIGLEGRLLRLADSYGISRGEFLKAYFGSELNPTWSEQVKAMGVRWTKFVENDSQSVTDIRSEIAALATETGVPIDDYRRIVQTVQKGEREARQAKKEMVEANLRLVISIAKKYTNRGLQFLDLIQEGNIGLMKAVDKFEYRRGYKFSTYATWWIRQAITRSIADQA", "assay": "crystal structure"}
{"binder": "B1", "values": [{"measurement": "stoichiometry N", "result": 1}]}
